Results from patent EP1246846B1 (ZymoGenetics, Inc., dated 2008).

Biological target: T1, IL-20RA/IL-20RB heterodimeric receptor (human, UniProt Q9UHF4 30-553; Q6UXL0 30-311)
T1 construct: Both subunits were co-expressed on transfected COS, BHK or BaF3 cells, or were endogenous on HaCaT keratinocytes; also called IL-20RB-IL-20RA heterodimer; IL-20 receptor
T1 sequence 1: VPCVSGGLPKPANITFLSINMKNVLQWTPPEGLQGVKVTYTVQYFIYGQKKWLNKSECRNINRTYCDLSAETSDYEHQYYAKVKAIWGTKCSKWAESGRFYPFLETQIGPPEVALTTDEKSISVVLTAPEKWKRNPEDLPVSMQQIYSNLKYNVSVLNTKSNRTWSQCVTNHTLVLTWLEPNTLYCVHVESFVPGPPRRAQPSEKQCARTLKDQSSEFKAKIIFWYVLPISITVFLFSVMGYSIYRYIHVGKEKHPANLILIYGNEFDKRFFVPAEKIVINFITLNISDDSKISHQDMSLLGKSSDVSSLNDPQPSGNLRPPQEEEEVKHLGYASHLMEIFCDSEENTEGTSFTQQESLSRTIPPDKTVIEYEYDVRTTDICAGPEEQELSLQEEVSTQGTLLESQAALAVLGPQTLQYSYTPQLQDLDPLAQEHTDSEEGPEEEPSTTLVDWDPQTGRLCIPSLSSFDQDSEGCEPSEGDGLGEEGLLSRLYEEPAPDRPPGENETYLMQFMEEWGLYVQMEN
T1 sequence 2: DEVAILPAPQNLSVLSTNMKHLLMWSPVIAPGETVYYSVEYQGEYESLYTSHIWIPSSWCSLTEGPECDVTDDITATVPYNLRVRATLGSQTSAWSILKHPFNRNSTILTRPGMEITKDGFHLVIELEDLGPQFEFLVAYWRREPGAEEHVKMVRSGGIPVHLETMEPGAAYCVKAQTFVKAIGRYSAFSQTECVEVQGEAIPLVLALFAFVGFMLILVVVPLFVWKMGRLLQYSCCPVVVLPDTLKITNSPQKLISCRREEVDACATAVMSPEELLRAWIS
Assay: 125I-labeled IL-20 binding to BHK cells stably transfected with IL-20RA and IL-20RB

B1: IL-20 (Interleukin-20) (ligand, UniProt Q9NYY1 25-176, looked up)
chain: LKTLNLGSCVIATNLQEIRNGFSEIRGSVQAKDGNIDIRILRRTESLQDTKPANRCCLLRHLLRLYLDRVFKNYQTPDHYTLRKISSLANSFLTIKKDLRLCHAHMTCHCGEEAMKKYSQILSHFEKLEPQAAVVKALGELDILLQWMEETE
modifications: biotin-labeled in Example 3; 125I-labeled in Example 7; unlabeled in the functional assays
notes: also called Zcyto10; biotin-labeled IL-20 protein
Work on B1 yielded a Kd of about 1.5 nM.
